In one assay the target is A327G. Put plainly: Biacore.
The next assay concerns the target H268D. Put plainly: Biacore.
The target of a further assay is S267E/N325L. The assay is described as follows: Biacore. On the technique in general: SPR reads the build-up and loss of mass on a sensor chip optically.
The target of a further assay is L328F. The assay is described as follows: Biacore.
In another assay the target is A327Q. Put plainly: Biacore.
In the next assay the target is H268N. The assay is described as follows: Biacore.
The target in a further assay is H268E. The assay is described as follows: Biacore.
Another assay deals with P329E. Put plainly: Biacore.
The target of the next assay is S298D. The assay is described as follows: Biacore.
In another assay the target is S267E/L328Y. The assay is described as follows: Biacore.
Another assay addresses H268Q. The assay is described as follows: Biacore.
The next assay concerns the target A327D. The assay is described as follows: Biacore.
The target of a further assay is A327N. Put plainly: Biacore.
The target of the next assay is T1, FcγRIIb (human, UniProt P31994 46-217).
T1 chain: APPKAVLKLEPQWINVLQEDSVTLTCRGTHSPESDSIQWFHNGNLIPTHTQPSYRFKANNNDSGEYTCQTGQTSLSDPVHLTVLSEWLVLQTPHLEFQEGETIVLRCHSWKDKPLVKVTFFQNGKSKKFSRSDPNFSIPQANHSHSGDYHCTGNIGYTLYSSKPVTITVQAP
The assay is described as follows: Biacore.

The next assay addresses T2, FcγRI (human, UniProt P12314 16-288).
T2 chain: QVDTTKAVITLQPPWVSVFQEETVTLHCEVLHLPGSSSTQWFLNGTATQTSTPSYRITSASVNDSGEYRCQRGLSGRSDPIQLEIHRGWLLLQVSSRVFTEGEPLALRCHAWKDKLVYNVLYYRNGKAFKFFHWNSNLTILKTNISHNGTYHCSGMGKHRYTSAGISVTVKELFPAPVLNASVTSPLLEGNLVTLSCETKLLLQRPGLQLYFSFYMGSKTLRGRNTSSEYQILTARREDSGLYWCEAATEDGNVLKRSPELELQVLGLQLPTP
Put plainly: Biacore.

Assay [1] concerns the target human V158 FcγRIIIa, extracellular region with C-terminal 6xHis-tag and GST-tag (human, UniProt P08637 17-208). Put plainly: AlphaScreen competition. Background: Bead proximity is the source of the signal in Alpha formats.

B1: FcγRIIaR (receptor)
chain: QAAAPPKAVLKLEPPWINVLQEDSVTLTCQGARSPESDSIQWFHNGNLIPTHTQPSYRFKANNNDSGEYTCQTGQTSLSDPVHLTVLSEWLVLQTPHLEFQEGETIMLRCHSWKDKPLVKVTFFQNGKSQKFSRLDPTFSIPQANHSHSGDYHCTGNIGYTLFSSKPVTITVQVPSMGSSSPMG
B1: the Kd is 2690 nM with A327G; 205 nM in the assay with H268D; 20.7 nM in the assay with S267E/N325L; 166 nM in the assay with L328F; 1350 nM in the assay with A327Q; 481 nM with H268N. Further, the dissociation constant Kd amounted to 269 nM with H268E; 10000 nM with P329E; 592 nM with S298D; 7.06 nM with S267E/L328Y; 544 nM with H268Q; 536 nM in the assay with A327D. This molecule displayed a Kd in the assay with A327N of 1410 nM.

B2: S267G (antibody)
chain 1: not shown
chain 2: DIVMTQSPATLSLSPGERATLSCRSSKSLQNVNGNTYLYWFQQKPGQSPQLLIYRMSNLNSGVPDRFSGSGSGTEFTLTISSLEPEDFAVYYCMQHLEYPITFGAGTKLEIKRTVAAPSVFIFPPSDEQLKSGTASVVCLLNNFYPREAKVQWKVDNALQSGNSQESVTEQDSKDSTYSLSSTLTLSKADYEKHKVYACEVTHQGLSSPVTKSFNRGEC
Turning to B2, the Kd with FcγRIIb came to 1450 nM; with FcγRI it was 0.626 nM.

B3: alemtuzumab S239D (antibody)
chain 1: not shown
chain 2: not shown
In turn, B3 yielded an IC50 in assay [1] of 0.4 nM.

B4: alemtuzumab, wild type, expressed in 293T cells (antibody)
chain 1: not shown
chain 2: not shown
For the molecule B4, in [1], the IC50 came to 4.6 nM.

The term Kd denotes the concentration at which binding is half-saturated. A low value points to tighter binding. Broadly, the IC50 is the concentration that inhibits the measured activity by half. A high value points to weaker potency.

The record behind these values is patent US20090042291A1 (published 2009).
